Drawing on paper PMC8816746, “Genetic tools for the redirection of the central carbon flow towards the production of lactate in the human gut bacterium Phocaeicola (Bacteroides) vulgatus” (Applied Microbiology and Biotechnology, 2022), this text covers Km for 1 protein.

Substrate in the data set: CC(=O)C(=O)O
Kind of data set: purified protein. It counts as biochemical, Phocaeicola vulgatus. The conditions noted are these: 250 μM NADH, 100 mM K-phosphate pH 7, 37 °C.

B1: D-LDH (BVU_2499) (Phocaeicola vulgatus ATCC 8482) (protein)
chain: AYKIAFYDTKPYDERSFTEANEKFGFDIRYYKGHLNMNNVVLTKGVDVVCIFVNDTADAEVIRAMADNGVKLLALRCAGYNNVDLAATAGKMKVVRVPAYSPYAVAEFTVALMLSLNRKIPRATMRTRDGNFSLHGLMGFDMHGKTAGIIGTGKIAKILIQILRGFGMNVLAYDLYPDYNFAREHQVVYCTLDELYHSSDIISLHCPLTEQTKYLINDYSISKMKDGVMIINTGRGQLIHTNALIEGLKTKKVGYAGLDVYEEEEPYFYEDKSDKIIDDDTLARLLSFNNVIVTSHQAFFTKEAMTNIAHTTLQNVKDFAESRSLVNEVAVGRV
notes: full-length ldh in pASK-IBA5, N-terminal Strep-tag kept (no cleavage told), E. coli DH5alpha, Strep-Tactin purified
Take B1: the Km (commonly the concentration of substrate that gives half-maximal velocity) came out at 1400 ± 100 µM.
